The values below come from publication PMC8239413.

In this assay the target is truncated RBD variant RBD-215 (amino acids R319-L533), plant-produced (SARS-CoV-2) (UniProt P0DTC2). Nature of the assay: SEC; IMAC-purified RBD-215 (Supplementary Figure 4). (In gel filtration, larger molecules generally elute earlier.)

On to “truncated RBD variant RBD-215 (amino acids R319-L533), plant-produced (from UniProt P0DTC2 319-533) (domain or fragment)”, for which the percent dimers came to 10%.
